Among the data in article PMC3834829, “A signature motif mediating selective interactions of BCL11A with the NR2E/F subfamily of orphan nuclear receptors” (Nucleic Acids Research, 2013) are response values, retold here.

The labels stand for the following.
B1: LexA-BCL11A-(651–670) [not stated] / AAD-COUP-TFI-LBD-(151–467) [not stated] (parent complex)
chain 1: NTENVYSQWLAGYAASRQLK
chain 2: MRREAVQRGRMPPTQPNPGQYALTNGDPLNGHCYLSGYISLLLRAEPYPTSRYGSQCMQPNNIMGIENICELAARLLFSAVEWARNIPFFPDLQITDQVSLLRLTWSELFVLNAAQCSMPLHVAPLLAAAGLHASPMSADRVVAFMDHIRIFQEQVEKLKALHVDSAEYSCLKAIVLFTSDACGLSDAAHIESLQEKSQCALEEYVRSQYPNQPSRFGKLLLRLPSLRTVSSSVIEQLFFVRLVGKTPIETLIRDMLLSGSSFNWPYMSIQCS
B2: LexA-BCL11A-(651–670) [not stated] / AAD-EAR2-LBD-(121–399) [not stated] (parent complex)
chain 1: NTENVYSQWLAGYAASRQLK
chain 2: MRKEAVQRGRIPHSLPGAVAASSGSPPGSALAAVASGGDLFPGQPVSELIAQLLRAEPYPAAAGRFGAGGGAAGAVLGIDNVCELAARLLFSTVEWARHAPFFPELPVADQVALLRLSWSELFVLNAAQAALPLHTAPLLAAAGLHAAPMAAERAVAFMDQVRAFQEQVDKLGRLQVDSAEYGCLKAIALFTPDACGLSDPAHVESLQEKAQVALTEYVRAQYPSQPQRFGRLLLRLPALRAVPASLISQLFFMRLVGKTPIETLIRDMLLSGSTFNWP
B3: AAD-COUP-TFII-LBD-(144–414) [not stated] / LexA-BCL11A-(310–325) [not stated] (parent complex)
chain 1: MRREAVQRGRMPPTQPTHGQFALTNGDPLNCHSYLSGYISLLLRAEPYPTSRFGSQCMQPNNIMGIENICELAARMLFSAVEWARNIPFFPDLQITDQVALLRLTWSELFVLNAAQCSMPLHVAPLLAAAGLHASPMSADRVVAFMDHIRIFQEQVEKLKALHVDSAEYSCLKAIVLFTSDACGLSDVAHVESLQEKSQCALEEYVRSQYPNQPTRFGKLLLRLPSLRTVSSSVIEQLFFVRLVGKTPIETLIRDMLLSGSSFNWPYMAIQ
chain 2: PPAMDFSRRLRELAGN
B4: AAD-COUP-TFII-LBD-(144–414) [not stated] / LexA-BCL11A-(651–670) [not stated] (parent complex)
chain 1: B3 chain 1
chain 2: NTENVYSQWLAGYAASRQLK

The first assay covers variants of B1. The assay is described as follows: yeast two-hybrid; read off a plot.
Regarding chain 1 NTENVYSQWLAAYAASRQLK, the response is ~2300 nmol/mg/min.

As to chain 1 NTENVYSQWAAGYAASRQLK, the response is ~0 nmol/mg/min. chain 1 NTENVYSAWLAGYAASRQLK: the response was ~920 nmol/mg/min. Still for that read-out and setting: the result for chain 1 NTENVYSQWLAGAAASRQLK reads ~0 nmol/mg/min. On the same count and under the same terms, the result for chain 1 NTENVYSQALAGYAASRQLK reads ~0 nmol/mg/min; that for chain 1 NTENAYSQWLAGYAASRQLK, ~220 nmol/mg/min. The same measure, in the same setting: with chain 1 NTENVASQWLAGYAASRQLK the figure was ~50 nmol/mg/min. In the case of chain 1 NTENVYAQWLAGYAASRQLK, the response is ~0 nmol/mg/min.

In another assay the parent is B2. The assay is described as follows: yeast two-hybrid; read off a plot.
Regarding chain 1 NTENAYSQWLAGYAASRQLK, the response is ~190 nmol/mg/min.

As to chain 1 NTENVYSQALAGYAASRQLK, the response was ~130 nmol/mg/min. On the same count and under the same terms, with chain 1 NTENVYSAWLAGYAASRQLK the figure was ~900 nmol/mg/min. The same measure, in the same setting: the result for chain 1 NTENVYAQWLAGYAASRQLK reads ~910 nmol/mg/min. Still for that read-out and setting: with chain 1 NTENVASQWLAGYAASRQLK the figure was ~840 nmol/mg/min. For chain 1 NTENVYSQWLAAYAASRQLK, the response was ~1800 nmol/mg/min. On the same count and under the same terms, with chain 1 NTENVYSQWLAGAAASRQLK the figure was ~0 nmol/mg/min; with chain 1 NTENVYSQWAAGYAASRQLK, ~0 nmol/mg/min.

The variants in another assay derive from B3. The assay can be described thus: yeast two-hybrid; read off a plot.
For the variant chain 1 MRREAVQRGRMPPTQPTHGQFALTNGDPLNCHSYLSGYISLLLRAEPYPTSRFGSQCMQPNNIMGIENICELAARMLASAVEWARNIPFFPDLQITDQVALLRLTWSELFVLNAAQCSMPLHVAPLLAAAGLHASPMSADRVVAFMDHIRIFQEQVEKLKALHVDSAEYSCLKAIVLFTSDACGLSDVAHVESLQEKSQCALEEYVRSQYPNQPTRFGKLLLRLPSLRTVSSSVIEQLFFVRLVGKTPIETLIRDMLLSGSSFNWPYMAIQ [chain 1 F78A], the response was ~0 nmol/mg/min. Regarding chain 1 MRREAVQRGRMPPTQPTHGQFALTNGDPLNCHSYLSGYISLLLRAEPYPTSRFGSQCMQPNNIMGIENICELAARMLFSAVEWARNIPFFPDLQITDQVALLALTWSELFVLNAAQCSMPLHVAPLLAAAGLHASPMSADRVVAFMDHIRIFQEQVEKLKALHVDSAEYSCLKAIVLFTSDACGLSDVAHVESLQEKSQCALEEYVRSQYPNQPTRFGKLLLRLPSLRTVSSSVIEQLFFVRLVGKTPIETLIRDMLLSGSSFNWPYMAIQ [chain 1 R103A], the response is ~330 nmol/mg/min.

chain 1 MRREAVQRGRMPPTQPTHGQFALTNGDPLNCHSYLSGYISLLLRAEPYPTSRFGSQCMQPNNIMGIENICELAARMLFSAAEWARNIPFFPDLQITDQVALLRLTWSELFVLNAAQCSMPLHVAPLLAAAGLHASPMSADRVVAFMDHIRIFQEQVEKLKALHVDSAEYSCLKAIVLFTSDACGLSDVAHVESLQEKSQCALEEYVRSQYPNQPTRFGKLLLRLPSLRTVSSSVIEQLFFVRLVGKTPIETLIRDMLLSGSSFNWPYMAIQ [chain 1 V81A]: the response is ~960 nmol/mg/min. On the same count and under the same terms, the result for chain 1 MRREAVQRGRMPPTQPTHGQFALTNGDPLNCHSYLSGYISLLLRAEPYPTSRFGSQCMQPNNIMGIENICELAARMLFSAVEWARNIPFFPDLQITDQAALLRLTWSELFVLNAAQCSMPLHVAPLLAAAGLHASPMSADRVVAFMDHIRIFQEQVEKLKALHVDSAEYSCLKAIVLFTSDACGLSDVAHVESLQEKSQCALEEYVRSQYPNQPTRFGKLLLRLPSLRTVSSSVIEQLFFVRLVGKTPIETLIRDMLLSGSSFNWPYMAIQ [chain 1 V99A] reads ~640 nmol/mg/min; that for chain 1 MRREAVQRGRMPPTQPTHGQFALTNGDPLNCHSYLSGYISLLLRAEPYPTSRFGSQCMQPNNIMGIENICELAARMLFSAVEWARNIPFFPDLQATDQVALLRLTWSELFVLNAAQCSMPLHVAPLLAAAGLHASPMSADRVVAFMDHIRIFQEQVEKLKALHVDSAEYSCLKAIVLFTSDACGLSDVAHVESLQEKSQCALEEYVRSQYPNQPTRFGKLLLRLPSLRTVSSSVIEQLFFVRLVGKTPIETLIRDMLLSGSSFNWPYMAIQ [chain 1 I95A], ~850 nmol/mg/min; that for chain 1 MRREAVQRGRMPPTQPTHGQFALTNGDPLNCHSYLSGYISLLLRAEPYPTSRFGSQCMQPNNIMGIENICELAARMLFSAVEWAANIPFFPDLQITDQVALLRLTWSELFVLNAAQCSMPLHVAPLLAAAGLHASPMSADRVVAFMDHIRIFQEQVEKLKALHVDSAEYSCLKAIVLFTSDACGLSDVAHVESLQEKSQCALEEYVRSQYPNQPTRFGKLLLRLPSLRTVSSSVIEQLFFVRLVGKTPIETLIRDMLLSGSSFNWPYMAIQ [chain 1 R85A], ~2100 nmol/mg/min.

Variants of B4 are the subject of another assay. The assay is described as follows: yeast two-hybrid; read off a plot.
For the variant chain 1 MRREAVQRGRMPPTQPTHGQFALTNGDPLNCHSYLSGYISLLLRAEPYPTSRFGSQCMQPNNIMGIENICELAARMLFSAVEWARNIPFFPDLQATDQVALLRLTWSELFVLNAAQCSMPLHVAPLLAAAGLHASPMSADRVVAFMDHIRIFQEQVEKLKALHVDSAEYSCLKAIVLFTSDACGLSDVAHVESLQEKSQCALEEYVRSQYPNQPTRFGKLLLRLPSLRTVSSSVIEQLFFVRLVGKTPIETLIRDMLLSGSSFNWPYMAIQ [chain 1 I95A], the response was ~2900 nmol/mg/min.

On to chain 1 MRREAVQRGRMPPTQPTHGQFALTNGDPLNCHSYLSGYISLLLRAEPYPTSRFGSQCMQPNNIMGIENICELAARMLFSAVEWAANIPFFPDLQITDQVALLRLTWSELFVLNAAQCSMPLHVAPLLAAAGLHASPMSADRVVAFMDHIRIFQEQVEKLKALHVDSAEYSCLKAIVLFTSDACGLSDVAHVESLQEKSQCALEEYVRSQYPNQPTRFGKLLLRLPSLRTVSSSVIEQLFFVRLVGKTPIETLIRDMLLSGSSFNWPYMAIQ [chain 1 R85A], for which the response was ~1200 nmol/mg/min. Still for that read-out and setting: the result for chain 1 MRREAVQRGRMPPTQPTHGQFALTNGDPLNCHSYLSGYISLLLRAEPYPTSRFGSQCMQPNNIMGIENICELAARMLFSAVEWARNIPFFPDLQITDQVALLALTWSELFVLNAAQCSMPLHVAPLLAAAGLHASPMSADRVVAFMDHIRIFQEQVEKLKALHVDSAEYSCLKAIVLFTSDACGLSDVAHVESLQEKSQCALEEYVRSQYPNQPTRFGKLLLRLPSLRTVSSSVIEQLFFVRLVGKTPIETLIRDMLLSGSSFNWPYMAIQ [chain 1 R103A] reads ~1900 nmol/mg/min.

Take chain 1 MRREAVQRGRMPPTQPTHGQFALTNGDPLNCHSYLSGYISLLLRAEPYPTSRFGSQCMQPNNIMGIENICELAARMLASAVEWARNIPFFPDLQITDQVALLRLTWSELFVLNAAQCSMPLHVAPLLAAAGLHASPMSADRVVAFMDHIRIFQEQVEKLKALHVDSAEYSCLKAIVLFTSDACGLSDVAHVESLQEKSQCALEEYVRSQYPNQPTRFGKLLLRLPSLRTVSSSVIEQLFFVRLVGKTPIETLIRDMLLSGSSFNWPYMAIQ [chain 1 F78A]: the response was ~40 nmol/mg/min.
